# In paper PMC2700083, “A covalent peptide inhibitor of RGS4 identified in a focused one-bead, one compound library screen” (BMC Pharmacology, 2009):
# Positions count from the first letter of the chain named.
# T1: RGS4 A148C, -7C (Rattus norvegicus, UniProt P49799, C132A/C183A/C197A/C204A/C71A/C95A)
# T1 construct: made in house
# T1 sequence (P49799 52-205 C71A/C95A/C132A/C183A/C197A/C204A): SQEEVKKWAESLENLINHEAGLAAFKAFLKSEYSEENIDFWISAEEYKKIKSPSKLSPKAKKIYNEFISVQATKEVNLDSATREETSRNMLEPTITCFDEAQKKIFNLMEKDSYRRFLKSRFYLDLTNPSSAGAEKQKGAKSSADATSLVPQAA
# T2: RGS4 C71A (Rattus norvegicus, UniProt P49799, C71A)
# T2 construct: made in house
# T2 sequence (P49799 52-205 C71A limits assumed): T1 sequence (P49799 52-205 C71A/C95A/C132A/C183A/C197A/C204A) with A44C, A81C, A132C, A146C, A153C
# T3: RGS4 C132A (Rattus norvegicus, UniProt P49799, C132A)
# T3 construct: made in house
# T3 sequence (P49799 52-205 C132A limits assumed): T1 sequence (P49799 52-205 C71A/C95A/C132A/C183A/C197A/C204A) with A20C, A44C, A132C, A146C, A153C
# T4: RGS4 C95A (Rattus norvegicus, UniProt P49799, C95A)
# T4 construct: made in house
# T4 sequence (P49799 52-205 C95A limits assumed): T1 sequence (P49799 52-205 C71A/C95A/C132A/C183A/C197A/C204A) with A20C, A81C, A132C, A146C, A153C
# T5: RGS4 (Rattus norvegicus, UniProt P49799)
# T5 construct: made in house
# T5 sequence (P49799 52-205 limits assumed): T1 sequence (P49799 52-205 C71A/C95A/C132A/C183A/C197A/C204A) with A20C, A44C, A81C, A132C, A146C, A153C
# B1: Gαo: Alexa Fluor 532-labeled Gα subunit, binding partner of RGS proteins in the FCPIA (protein)
# chain: MGCTLSAEERAALERSKAIEKNLKEDGISAAKDVKLLLLGAGESGKSTIVKQMKIIHEDGFSGEDVKQYKPVVYSNTIQSLAAIVRAMDTLGVEYGDKERKADSKMVCDVVSRMEDTEPFSAELLSAMMRLWGDSGIQECFNRSREYQLNDSAKYYLDSLDRIGAADYQPTEQDILRTRVKTTGIVETHFTFKNLHFRLFDVGGQRSERKKWIHCFEDVTAIIFCVALSGYDQVLHEDETTNRMHESLMLFDSICNNKFFIDTSIILFLNKKDLFGEKIKKSPLTICFPEYPGSNTYEDAAAYIQTQFESKNRSPNKEIYCHMTCATDTNNIQVVFDAVTDIIIANNLRGCGLY
# modifications: Alexa Fluor 532 label (sites not given)
# Assays:
# Format in all cases: binding
# RGS4 A132C, -7C = biological target: T6, RGS4 A132C, -7C (Rattus norvegicus, UniProt P49799, C148A/C183A/C197A/C204A/C71A/C95A); assay: FCPIA, RGS4 A132C in the -7C; conditions: read-out: Gαo affinity
# T6 construct: made in house
# T6 sequence (P49799 52-205 C71A/C95A/C148A/C183A/C197A/C204A): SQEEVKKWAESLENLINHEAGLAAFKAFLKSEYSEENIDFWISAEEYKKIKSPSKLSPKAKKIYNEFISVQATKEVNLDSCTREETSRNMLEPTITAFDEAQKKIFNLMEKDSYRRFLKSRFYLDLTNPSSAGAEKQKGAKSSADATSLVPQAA
# Experimental: (§1) Figure 5 Dose curves of 5nd on various RGS4 cysteine mutants. Various concentrations of 5nd were tested for disruption of the RGS4-Gαo interaction for C95A (5 nM), or […], C71A (5nM) or C148A (5nM) (B), A95C in the -7C (5nM), or A132C in the -7C (5nM) (C), A71C in the -7C (5nM), or A148C in the -7C (5nM) (D) or the mutant with no cysteines in the domain (20 nM) or the C-terminus (20 nM) (E) in the FCPIA (mean ± S.E.M., n ≥ 3).
# (§2) The previous experiments tested which cysteines are necessary for inhibition by 5nd. In an alternative approach, we added cysteines back to the -7C mutant to determine which might be sufficient for 5nd activity. […] Furthermore, Cys132 is involved in the actions but this is clearly not sufficient to explain them. Thus it is concluded that 5nd is at least partially non-selective in its cysteine modification.
# (§3) Proteins were expressed, purified and labeled as described previously. The mutagenesis was done using the "QuickChange Multi Site-Directed Mutagenesis Kit" from Stratagene according to the manufacturer's protocol. The construct of RGS4 used in these studies is a maltose binding protein (MBP-) fusion protein of the RGS4 sequence from which the amphipathic N-terminal helix has been removed (i.e. MBP-RGS4Δ51N). For simplicity in the text, this will be referred to as RGS4. […]
# RGS4 A95C, -7C = biological target: T7, RGS4 A95C, -7C (Rattus norvegicus, UniProt P49799, C132A/C148A/C183A/C197A/C204A/C71A); assay: FCPIA, RGS4 A95C in the -7C; conditions: read-out: Gαo affinity
# T7 construct: made in house
# T7 sequence (P49799 52-205 C71A/C132A/C148A/C183A/C197A/C204A): as the sequence (P49799 52-205 C71A/C95A/C148A/C183A/C197A/C204A) above, with A44C, C81A counted along it
# Experimental: as §1, §2, §3
# RGS4 A148C, -7C = biological target: T1, RGS4 A148C, -7C; assay: FCPIA, RGS4 A148C in the -7C; conditions: read-out: Gαo affinity
# Experimental: as §1, §2, §3
# RGS4 C148A = biological target: T8, RGS4 C148A (Rattus norvegicus, UniProt P49799, C148A); assay: FCPIA, RGS4 cysteine mutant C148A; conditions: read-out: Gαo affinity
# T8 construct: made in house
# T8 sequence (P49799 52-205 C148A limits assumed): as the sequence (P49799 52-205 C71A/C95A/C148A/C183A/C197A/C204A) above, with A20C, A44C, A132C, A146C, A153C counted along it
# Experimental: as §1
# (§4) Proteins were expressed, purified and labeled as described previously. The mutagenesis was done using the "QuickChange Multi Site-Directed Mutagenesis Kit" from Stratagene according to the manufacturer's protocol. The construct of RGS4 used in these studies is a maltose binding protein (MBP-) fusion protein of the RGS4 sequence from which the amphipathic N-terminal helix has been removed (i.e. MBP-RGS4Δ51N). For simplicity in the text, this will be referred to as RGS4. All other RGS proteins were human sequences and were used as Mpb fusions: RGS7 RGS domain (aa: 305–453), RGS8 full length, RGS16 full length, and RGS19ΔC11 (amino acids 1–209). To cleave RGS4Δ51N from the MBP-His6 construct for MS analysis, MBP-His6-RGS4Δ51N was treated with 15% MBP-His6-TEV protease S219V [11] for 22 hours at 4°C and purified over a Ni-NTA column.
# (§5) FCPIA was performed as previously published.
# RGS4 -7C = biological target: T9, RGS4 -7C (Rattus norvegicus, UniProt P49799, C132A/C148A/C183A/C197A/C204A/C71A/C95A); assay: FCPIA, RGS4 -7C mutant (all 7 cysteines removed); conditions: read-out: Gαo affinity
# T9 construct: made in house
# T9 sequence (P49799 52-205 C71A/C95A/C132A/C148A/C183A/C197A/C204A): as the sequence (P49799 52-205 C71A/C95A/C148A/C183A/C197A/C204A) above, with C81A counted along it
# Experimental: (§6) Since 5nd forms an irreversible, DTT-sensitive bond with RGS, it was suspected that it binds covalently to a cysteine in the protein through a disulfide bridge. Indeed, removal of all 7 cysteines (termed the -7C mutant) from RGS4 greatly diminished 5nd activity (logIC50 of -3.24 ± 0.14 for -7C vs. -4.36 ± 0.02 for wild type) (Figure 5, Table 2).
# as §1, §3
# RGS4 C71A = biological target: T2, RGS4 C71A; assay: FCPIA, RGS4 cysteine mutant C71A; conditions: read-out: Gαo affinity
# Experimental: as §1, §4, §5
# RGS4 A71C, -7C = biological target: T10, RGS4 A71C, -7C (Rattus norvegicus, UniProt P49799, C132A/C148A/C183A/C197A/C204A/C95A); assay: FCPIA, RGS4 A71C in the -7C; conditions: read-out: Gαo affinity
# T10 construct: made in house
# T10 sequence (P49799 52-205 C95A/C132A/C148A/C183A/C197A/C204A): as the sequence (P49799 52-205 C71A/C95A/C148A/C183A/C197A/C204A) above, with A20C, C81A counted along it
# Experimental: as §1, §2, §3
# RGS4 C132A = biological target: T3, RGS4 C132A; assay: FCPIA, RGS4 cysteine mutant C132A; conditions: read-out: Gαo affinity
# Experimental: as §1, §4, §5
# [1] = biological target: RGS4 no Cys in C-terminus; assay: FCPIA, RGS4 mutant with no Cys in C-terminus; conditions: read-out: Gαo affinity
# Experimental: as §6, §1, §3
# RGS4 C95A = biological target: T4, RGS4 C95A; assay: FCPIA, RGS4 cysteine mutant C95A; conditions: read-out: Gαo affinity
# Experimental: as §1, §4, §5
# RGS4 = biological target: T5, RGS4; assay: FCPIA (flow cytometry protein interaction assay), RGS4-Gαo interaction, wild type RGS4 (MBP-RGS4Δ51N); conditions: wild type RGS4Δ51N, calculated in the FCPIA; read-out: Gαo affinity
# [2] = biological target: T11, RGS4 no Cys in RGS domain (Rattus norvegicus, UniProt P49799, C132A/C148A/C71A/C95A); assay: FCPIA, RGS4 mutant with no Cys in RGS domain; conditions: no Cys in RGS domain; read-out: Gαo affinity
# T11 construct: made in house
# T11 sequence (P49799 52-205 C71A/C95A/C132A/C148A limits assumed): as the sequence (P49799 52-205 C71A/C95A/C148A/C183A/C197A/C204A) above, with C81A, A132C, A146C, A153C counted along it
# Experimental: as §6, §1, §3
molecule,measurement,setting,value
B1,Kd,"RGS4 A132C, -7C",12.5 ± 1 nM
same,Kd,"RGS4 A95C, -7C",12 ± 2 nM
same,Kd,"RGS4 A148C, -7C",5.7 ± 0.2 nM
same,Kd,RGS4 C148A,6.84 ± 1 nM
same,Kd,RGS4 -7C,8.3 ± 1 nM
same,Kd,RGS4 C71A,12.2 ± 1.8 nM
same,Kd,"RGS4 A71C, -7C",9.2 ± 2 nM
same,Kd,RGS4 C132A,7.9 ± 3.1 nM
same,Kd,[1],5 ± 0.7 nM
same,Kd,RGS4 C95A,8.17 ± 1.5 nM
same,Kd,RGS4,11.6 ± 1.4 nM
same,Kd,[2],3.9 ± 0.8 nM
